Measurements: patent US20030108992A1 (US Dept. of Health and Human Services, published 2003)

Target: T1, p80 TNFR (endogenous) (UniProt P20333 23-461, limits assumed)
T1 construct: whole, on cells; also called TNFR2; p75
T1 sequence (looked up): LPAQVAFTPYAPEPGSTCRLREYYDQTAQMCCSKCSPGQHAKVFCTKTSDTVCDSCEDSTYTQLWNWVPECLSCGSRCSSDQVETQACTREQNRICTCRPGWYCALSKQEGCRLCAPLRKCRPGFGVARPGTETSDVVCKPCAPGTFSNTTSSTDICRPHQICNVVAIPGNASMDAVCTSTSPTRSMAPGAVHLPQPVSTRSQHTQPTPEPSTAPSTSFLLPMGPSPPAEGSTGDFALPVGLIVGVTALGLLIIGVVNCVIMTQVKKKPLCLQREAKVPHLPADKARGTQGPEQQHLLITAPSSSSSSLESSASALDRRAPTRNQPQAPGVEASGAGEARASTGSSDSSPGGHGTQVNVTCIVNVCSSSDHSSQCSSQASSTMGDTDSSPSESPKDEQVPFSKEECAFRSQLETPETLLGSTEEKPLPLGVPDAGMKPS
Experiment: DTSSP crosslinking of H9 cells, anti-p60 immunoprecipitation, Western blot
Procedure: H9 lymphoma cells were washed and resuspended in PBS. […] Cells were then treated with 2 mM of the crosslinker DTSSP (Pierce) for 30 minutes and the reaction was quenched with 20 mM Tris.Cl [pH 7.5] for 15 minutes on ice. The cells were lysed in 150 mM NaCl, 20 mM Tris.Cl [pH 7.5], 1 mM EDTA, 30 mM NaF, 2 mM b-glycerophosphate and 1 mM sodium orthovanadate with protease inhibitors added (Boehringer Mannheim). […] Densitometry was performed with a Kodak Image Station 440.

binding result: no binding
B1: p60 TNFR (endogenous) (receptor, UniProt P19438 30-455, looked up)
chain: LVPHLGDREKRDSVCPQGKYIHPQNNSICCTKCHKGTYLYNDCPGPGQDTDCRECESGSFTASENHLRHCLSCSKCRKEMGQVEISSCTVDRDTVCGCRKNQYRHYWSENLFQCFNCSLCLNGTVHLSCQEKQNTVCTCHAGFFLRENECVSCSNCKKSLECTKLCLPQIENVKGTEDSGTTVLLPLVIFFGLCLLSLLFIGLMYRYQRWKSKLYSIVCGKSTPEKEGELEGTTTKPLAPNPSFSPTPGFTPTLGFSPVPSSTFTSSSTYTPGDCPNFAAPRREVAPPYQGADPILATALASDPIPNPLQKWEDSAHKPQSLDTDDPATLYAVVENVPPLRWKEFVRRLGLSDHEIDRLELQNGRCLREAQYSMLATWRRRTPRREATLELLGRVLRDMDLLGCLEDIEEALCGPAALPPAPSLLR
notes: whole, on cells; also called endogenous p60 receptor; TNFR1
